Source: paper doi:10.1101/2025.02.27.640495

Molecular target: Cro-6His (Cro-like repressor of phage phi10403S) (Listeria monocytogenes 10403S prophage …, UniProt A0A0H3GJS2 1-67)
Assay: EMSA

B1: Cro operator probe, native (dsDNA)
DNA 1: TTATAGAGAAACAAAACGTTTCTTTTGG
DNA 2: CCAAAAGAAACGTTTTGTTTCTCTATAA
Kd: 321 nM
